Measurements from patent US20110257076A1 (INDIANA UNIVERSITY RESEARCH AND TECHNOLOGY, published 2011).
Ends that are not written are not given here.

Columns and labels:
human insulin receptor [1] = target: T1, human insulin receptor (human, UniProt P06213 28-1382); experiment: cell-based or functional assay; design: EC50, total phosphorylation, Insulin Receptor (Mar. 31, 2008): unit not given beside the values
human IGF-1 receptor [2] = target: T2, human IGF-1 receptor (human, UniProt P08069 31-1367); experiment: cell-based or functional assay; design: EC50, total phosphorylation, Insulin Receptor (Mar. 31, 2008): unit not given beside the values
human IGF-1 receptor [3] = target: T2, human IGF-1 receptor; experiment: SPA competition vs [125I]-IGF-1, membranes with human IGF-1 receptor (Example 3); Jun. 4, 2007
Description: (§1) Non-specifically bound (NSB) radioactivity was measured in the wells with a four-fold concentration excess of “cold” native ligand than the highest concentration in test samples. Total bound radioactivity was detected in the wells with no competitor. Percent specific binding was calculated as following: % Specific Binding=(Bound-NSB/Total bound-NSB)×100. IC50 values were determined by using Origin software (OriginLab, Northampton, Mass.).

human IGF-1 receptor [4] = target: T2, human IGF-1 receptor; experiment: SPA competition vs [125I]-IGF-1, membranes with human IGF-1 receptor (Example 3); Sep. 18, 2007
Description: as §1

human insulin receptor [5] = target: T1, human insulin receptor; experiment: SPA competition vs [125I]-insulin, membranes with human insulin receptor (Example 3); May 22, 2007
Description: as §1

human insulin receptor [6] = target: T1, human insulin receptor; experiment: SPA competition vs [125I]-insulin, membranes with human insulin receptor (Example 3); May 29, 2007
Description: as §1

human insulin receptor [7] = target: T1, human insulin receptor; experiment: SPA competition vs [125I]-insulin, membranes with human insulin receptor (Example 3); Dec. 4, 2007
Description: as §1

human insulin receptor [8] = target: T1, human insulin receptor; experiment: SPA competition vs [125I]-insulin, membranes with human insulin receptor (Example 3); Jun. 5, 2008
Description: as §1

human insulin receptor [9] = target: T1, human insulin receptor; experiment: SPA competition vs [125I]-insulin, membranes with human insulin receptor (Example 3); Nov. 9, 2007
Description: as §1

human insulin receptor [10] = target: T1, human insulin receptor; experiment: SPA competition vs [125I]-insulin, membranes with human insulin receptor (Example 3); May 18, 2007
Description: as §1

B1: IGF-1 A:B(E10Y16L17) (ligand)
chain 1: GIVDECCFRSCDLRRLEMYCA-NH2
chain 2: GPETLCGAELVDALYLVCGDRGFYFNKPT-NH2
modifications: disulfide (positions not given here); not fully specified (bridges)
- % Insulin, total phosphorylation, Insulin Receptor (human insulin receptor [1]): 49.2%
- EC50, total phosphorylation, Insulin Receptor (Mar. 31, 2008) (human insulin receptor [1]): 2.57
- % IGF, total phosphorylation, IGF-1 Receptor (human IGF-1 receptor [2]): 13%
- % IGF-1 (in test) (human IGF-1 receptor [3]): 6.8%
- % native IGF-1 activity (0.55 nM) (human IGF-1 receptor [3]): 7%
- % IGF-1 (in test) (human IGF-1 receptor [4]): 5%
- % native IGF-1 activity (0.55 nM) (human IGF-1 receptor [4]): 4.5%
- % insulin (in test) (human insulin receptor [5]): 58.7%
- % native insulin activity (0.6 nM) (human insulin receptor [5]): 90.9%
- % native insulin activity (0.6 nM) (human insulin receptor [6]): 118%

B2: IGF-1 A:B (H5D10Y16L17) DPI (ligand)
chain 1: GIVDECCFRSCDLRRLEMYCA-NH2
chain 2: GPEHLCGADLVDALYLVCGDRGFY-NH2
modifications: disulfide (positions not given here); not fully specified (bridges)
- % IGF, total phosphorylation, IGF-1 Receptor (human IGF-1 receptor [2]): 7.1%

B3: IGF-1 A:B(D10Y16L17) DPI A-COOH (ligand)
chain 1: GIVDECCFRSCDLRRLEMYCA-OH
chain 2: GPETLCGADLVDALYLVCGDRGFY-NH2
modifications: disulfide (positions not given here); not fully specified (bridges)
- % Insulin, total phosphorylation, Insulin Receptor (human insulin receptor [1]): 1580%
- % IGF, total phosphorylation, IGF-1 Receptor (human IGF-1 receptor [2]): 112%
- % native insulin activity (0.6 nM) (human insulin receptor [7]): 300%
- % native insulin activity (0.6 nM) (human insulin receptor [8]): 144%
- % native insulin activity (0.6 nM) (human insulin receptor [9]): 231%

B4: IGF-1 A (H8 A9 N21):B(H5D10Y16L17 A22) DPI A-COOH (ligand)
chain 1: GIVDECCHASCDLRRLEMYCN-OH
chain 2: GPEHLCGADLVDALYLVCGDAGFY-NH2
modifications: disulfide (positions not given here); not fully specified (bridges)
- % IGF, total phosphorylation, IGF-1 Receptor (human IGF-1 receptor [2]): 7.7%

B5: IGF-1 A (H8 A9 N21):B(H5D10Y16L17) DPI A-COOH (ligand)
chain 1: GIVDECCHASCDLRRLEMYCN-OH
chain 2: GPEHLCGADLVDALYLVCGDRGFY-NH2
modifications: disulfide (positions not given here); not fully specified (bridges)
- % IGF, total phosphorylation, IGF-1 Receptor (human IGF-1 receptor [2]): 181%

B6: IGF-1 A:B(E10 Y16L17)-E31E32 B-COOH (ligand)
chain 1: GIVDECCFRSCDLRRLEMYCA-NH2
chain 2: GPETLCGAELVDALYLVCGDRGFYFNKPTEE-OH
modifications: disulfide (positions not given here); not fully specified (bridges)
- EC50, total phosphorylation, Insulin Receptor (Mar. 31, 2008) (human insulin receptor [1]): 7

B7: IGF-1 A:In (1-17)-IGF-1 B (18-30) (ligand)
chain 1: GIVDECCFRSCDLRRLEMYCA-NH2
chain 2: FVNQHLCGSHLVEALYLVCGDRGFYFNKPT-NH2
modifications: disulfide (positions not given here); not fully specified (bridges)
notes: The B chain is a chimera; The conversion is mine
- % native insulin activity (0.6 nM) (human insulin receptor [10]): 22.5%
- % insulin (in test) (human insulin receptor [5]): 14%
- % native insulin activity (0.6 nM) (human insulin receptor [5]): 21.7%
- % native insulin activity (0.6 nM) (human insulin receptor [6]): 24.2%
